Values quoted from earlier work in PMC3962485.

Target: Hsc70 (UniProt P11142)
Sequence of UniProt P11142 (P11142 2-646): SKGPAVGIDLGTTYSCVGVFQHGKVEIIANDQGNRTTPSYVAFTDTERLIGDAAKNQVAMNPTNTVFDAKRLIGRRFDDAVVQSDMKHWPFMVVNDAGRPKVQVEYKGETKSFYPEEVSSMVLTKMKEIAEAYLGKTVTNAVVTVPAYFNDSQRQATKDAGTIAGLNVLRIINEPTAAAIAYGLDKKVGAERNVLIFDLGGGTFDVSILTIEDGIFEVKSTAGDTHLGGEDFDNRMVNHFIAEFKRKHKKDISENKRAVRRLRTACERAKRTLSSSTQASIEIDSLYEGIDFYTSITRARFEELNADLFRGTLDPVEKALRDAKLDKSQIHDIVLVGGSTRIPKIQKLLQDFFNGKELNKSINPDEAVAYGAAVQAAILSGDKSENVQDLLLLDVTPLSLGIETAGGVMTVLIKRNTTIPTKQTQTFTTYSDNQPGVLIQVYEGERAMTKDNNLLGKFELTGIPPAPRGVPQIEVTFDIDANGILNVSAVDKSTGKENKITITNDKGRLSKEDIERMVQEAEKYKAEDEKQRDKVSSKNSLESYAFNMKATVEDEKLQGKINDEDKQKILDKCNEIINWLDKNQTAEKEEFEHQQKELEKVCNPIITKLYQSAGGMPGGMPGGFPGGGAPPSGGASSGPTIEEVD

Kd: 5 µM
Substance: Snl1-M (from UniProt P40548)
